T1: PlexA1‐4 (Drosophila melanogaster, UniProt Q9V491 28-730)
T1 construct: Plexin A (PlexA), Drosophila melanogaster, domains 1-4 (sema, PSI1, IPT1, PSI2), residues 28–730; also called PlexA domains 1-4; source: HEK 293T, transient transfection, purified (HisTrap, SEC); for crystallisation made with kifunensine, not deglycosylated
T1 sequence (looked up): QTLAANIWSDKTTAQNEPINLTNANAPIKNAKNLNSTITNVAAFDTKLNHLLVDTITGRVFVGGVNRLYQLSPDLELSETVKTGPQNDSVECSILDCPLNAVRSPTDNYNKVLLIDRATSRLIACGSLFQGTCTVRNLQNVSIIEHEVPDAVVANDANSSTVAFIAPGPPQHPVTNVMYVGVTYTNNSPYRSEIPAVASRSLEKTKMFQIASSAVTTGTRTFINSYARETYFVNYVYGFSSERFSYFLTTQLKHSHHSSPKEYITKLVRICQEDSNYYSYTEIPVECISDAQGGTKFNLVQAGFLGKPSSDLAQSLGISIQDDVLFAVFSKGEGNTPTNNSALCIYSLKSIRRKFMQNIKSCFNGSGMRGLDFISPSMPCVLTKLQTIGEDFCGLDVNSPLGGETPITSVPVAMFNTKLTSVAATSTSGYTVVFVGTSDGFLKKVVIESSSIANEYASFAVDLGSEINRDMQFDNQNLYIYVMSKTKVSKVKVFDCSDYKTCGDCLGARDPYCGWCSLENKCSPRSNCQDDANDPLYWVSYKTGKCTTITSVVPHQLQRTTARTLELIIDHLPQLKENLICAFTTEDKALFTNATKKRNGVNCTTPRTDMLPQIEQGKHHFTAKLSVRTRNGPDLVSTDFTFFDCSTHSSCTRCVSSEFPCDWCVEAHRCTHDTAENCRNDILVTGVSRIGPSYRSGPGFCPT

T2: Sema1b_(ecto)‐mutA (Drosophila melanogaster, UniProt Q7KK54 37-659, F203E | Q219R | K223E)
T2 sequence: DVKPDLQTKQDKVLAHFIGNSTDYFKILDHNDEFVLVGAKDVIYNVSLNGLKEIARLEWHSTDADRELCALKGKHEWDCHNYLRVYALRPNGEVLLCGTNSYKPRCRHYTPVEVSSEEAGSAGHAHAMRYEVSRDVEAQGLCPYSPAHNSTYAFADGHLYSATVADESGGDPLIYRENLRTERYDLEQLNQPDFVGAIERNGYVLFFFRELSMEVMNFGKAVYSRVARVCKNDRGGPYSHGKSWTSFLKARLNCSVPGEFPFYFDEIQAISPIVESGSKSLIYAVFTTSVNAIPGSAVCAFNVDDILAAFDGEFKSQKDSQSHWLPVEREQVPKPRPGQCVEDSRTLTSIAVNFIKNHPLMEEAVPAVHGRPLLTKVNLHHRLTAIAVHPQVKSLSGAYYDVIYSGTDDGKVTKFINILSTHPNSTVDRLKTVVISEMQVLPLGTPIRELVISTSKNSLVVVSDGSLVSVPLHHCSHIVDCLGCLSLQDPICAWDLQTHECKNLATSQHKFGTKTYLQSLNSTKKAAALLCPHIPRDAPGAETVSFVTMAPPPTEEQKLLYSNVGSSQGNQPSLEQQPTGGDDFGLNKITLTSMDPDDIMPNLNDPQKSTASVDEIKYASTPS

T3: Sema1b_(ecto)‐mutB (Drosophila melanogaster, UniProt Q7KK54 37-659, loop 350–367 was replaced with 18 alanine residues)
T3 sequence: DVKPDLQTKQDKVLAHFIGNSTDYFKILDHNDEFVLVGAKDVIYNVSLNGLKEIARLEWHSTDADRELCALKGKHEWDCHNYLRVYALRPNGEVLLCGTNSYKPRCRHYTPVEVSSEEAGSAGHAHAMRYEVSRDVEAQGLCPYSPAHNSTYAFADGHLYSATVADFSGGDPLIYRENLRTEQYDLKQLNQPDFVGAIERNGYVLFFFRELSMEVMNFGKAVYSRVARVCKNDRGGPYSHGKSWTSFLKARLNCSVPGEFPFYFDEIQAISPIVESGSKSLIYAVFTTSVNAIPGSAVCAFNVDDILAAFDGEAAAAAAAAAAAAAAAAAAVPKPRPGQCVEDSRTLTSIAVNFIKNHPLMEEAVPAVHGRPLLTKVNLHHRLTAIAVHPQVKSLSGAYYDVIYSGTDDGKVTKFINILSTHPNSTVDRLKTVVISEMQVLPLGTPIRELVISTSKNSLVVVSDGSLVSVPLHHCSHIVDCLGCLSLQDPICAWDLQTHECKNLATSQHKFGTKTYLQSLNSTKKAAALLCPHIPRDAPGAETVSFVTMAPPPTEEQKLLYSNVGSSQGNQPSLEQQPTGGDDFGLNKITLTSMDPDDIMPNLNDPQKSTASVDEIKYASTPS


Experiments:
PlexA1‐4 = target: T1, PlexA1‐4; assay: SEC-MALS; Superdex 200 10/300, 15 mM HEPES pH 7.8, 150 mM NaCl; single proteins injected at 2.0, 1.0 and 0.5 mg/ml; equimolar mixture of Sema1b1‐2 and PlexA1‐4; conditions: both partners purified
Sema1b_(ecto)‐mutA = target: T2, Sema1b_(ecto)‐mutA; assay: MST
Sema1b_(ecto)‐mutB = target: T3, Sema1b_(ecto)‐mutB; assay: MST

| stoichiometry N (PlexA1‐4) | Kd (Sema1b_(ecto)‐mutA) | Kd (Sema1b_(ecto)‐mutB) | Binder |
| --- | --- | --- | --- |
| 1 | – | – | Sema1b1‐2 (domain or fragment, Drosophila melanogaster, UniProt Q7KK54 37-602, looked up, Semaphorin 1b (Sema1b), Drosophila melanogaster, domains 1-2 (sema, PSI), residues 37–602; also called Sema1b sema-PSI fragment; source: HEK 293T, transient transfection, purified (HisTrap, SEC); for crystallisation made with kifunensine and treated with endoglycosidase F1) DVKPDLQTKQDKVLAHFIGNSTDYFKILDHNDEFVLVGAKDVIYNVSLNGLKEIARLEWHSTDADRELCALKGKHEWDCHNYLRVYALRPNGEVLLCGTNSYKPRCRHYTPVEVSSEEAGSAGHAHAMRYEVSRDVEAQGLCPYSPAHNSTYAFADGHLYSATVADFSGGDPLIYRENLRTEQYDLKQLNQPDFVGAIERNGYVLFFFRELSMEVMNFGKAVYSRVARVCKNDRGGPYSHGKSWTSFLKARLNCSVPGEFPFYFDEIQAISPIVESGSKSLIYAVFTTSVNAIPGSAVCAFNVDDILAAFDGEFKSQKDSQSHWLPVEREQVPKPRPGQCVEDSRTLTSIAVNFIKNHPLMEEAVPAVHGRPLLTKVNLHHRLTAIAVHPQVKSLSGAYYDVIYSGTDDGKVTKFINILSTHPNSTVDRLKTVVISEMQVLPLGTPIRELVISTSKNSLVVVSDGSLVSVPLHHCSHIVDCLGCLSLQDPICAWDLQTHECKNLATSQHKFGTKTYLQSLNSTKKAAALLCPHIPRDAPGAETVSFVTMAPPPTEEQKLLYSNVGS |
| – | 1240 nM | 74 nM | PlexA1‐4‐mVenus (domain or fragment) QTLAANIWSDKTTAQNEPINLTNANAPIKNAKNLNSTITNVAAFDTKLNHLLVDTITGRVFVGGVNRLYQLSPDLELSETVKTGPQNDSVECSILDCPLNAVRSPTDNYNKVLLIDRATSRLIACGSLFQGTCTVRNLQNVSIIEHEVPDAVVANDANSSTVAFIAPGPPQHPVTNVMYVGVTYTNNSPYRSEIPAVASRSLEKTKMFQIASSAVTTGTRTFINSYARETYFVNYVYGFSSERFSYFLTTQLKHSHHSSPKEYITKLVRICQEDSNYYSYTEIPVECISDAQGGTKFNLVQAGFLGKPSSDLAQSLGISIQDDVLFAVFSKGEGNTPTNNSALCIYSLKSIRRKFMQNIKSCFNGSGMRGLDFISPSMPCVLTKLQTIGEDFCGLDVNSPLGGETPITSVPVAMFNTKLTSVAATSTSGYTVVFVGTSDGFLKKVVIESSSIANEYASFAVDLGSEINRDMQFDNQNLYIYVMSKTKVSKVKVFDCSDYKTCGDCLGARDPYCGWCSLENKCSPRSNCQDDANDPLYWVSYKTGKCTTITSVVPHQLQRTTARTLELIIDHLPQLKENLICAFTTEDKALFTNATKKRNGVNCTTPRTDMLPQIEQGKHHFTAKLSVRTRNGPDLVSTDFTFFDCSTHSSCTRCVSSEFPCDWCVEAHRCTHDTAENCRNDILVTGVSRIGPSYRSGPGFCPT |
